In patent US20130243722A1 (NEUMEDICINES, published 2013):

Target: human IL-12 receptor on human CD14- PBMC (human, UniProt Q99665 24-862)
Experiment: cell-based or functional assay

human IL-12 receptor on human CD14- PBMC, sequence (Q99665 24-862): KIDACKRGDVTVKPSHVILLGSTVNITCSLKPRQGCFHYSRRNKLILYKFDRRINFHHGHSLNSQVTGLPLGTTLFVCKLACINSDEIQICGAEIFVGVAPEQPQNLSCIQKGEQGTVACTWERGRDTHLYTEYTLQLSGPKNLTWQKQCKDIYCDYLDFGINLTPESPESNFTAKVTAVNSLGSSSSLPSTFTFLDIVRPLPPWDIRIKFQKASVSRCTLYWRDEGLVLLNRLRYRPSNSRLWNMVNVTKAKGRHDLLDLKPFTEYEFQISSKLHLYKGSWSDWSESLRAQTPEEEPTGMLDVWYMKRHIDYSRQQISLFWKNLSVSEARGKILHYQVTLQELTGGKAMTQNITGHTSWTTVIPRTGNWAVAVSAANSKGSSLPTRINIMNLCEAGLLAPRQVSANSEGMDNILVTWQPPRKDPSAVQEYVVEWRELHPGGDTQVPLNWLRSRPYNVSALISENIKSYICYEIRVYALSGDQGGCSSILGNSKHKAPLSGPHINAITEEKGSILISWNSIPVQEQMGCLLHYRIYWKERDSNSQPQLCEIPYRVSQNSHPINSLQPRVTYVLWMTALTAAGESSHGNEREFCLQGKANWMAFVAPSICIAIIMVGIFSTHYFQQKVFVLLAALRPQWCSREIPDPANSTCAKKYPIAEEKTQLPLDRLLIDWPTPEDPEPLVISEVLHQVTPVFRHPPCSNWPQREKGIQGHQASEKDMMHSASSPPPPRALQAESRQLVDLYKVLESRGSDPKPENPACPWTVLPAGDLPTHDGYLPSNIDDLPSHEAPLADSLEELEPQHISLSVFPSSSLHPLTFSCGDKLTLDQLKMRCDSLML

B1: recombinant human IL-12 (ligand)
chain 1: RNLPVATPDPGMFPCLHHSQNLLRAVSNMLQKARQTLEFYPCTSEEIDHEDITKDKTSTVEACLPLELTKNESCLNSRETSFITNGSCLASRKTSFMMALCLSSIYEDLKMYQVEFKTMNAKLLMDPKRQIFLDQNMLAVIDELMQALNFNSETVPQKSSLEEPDFYKTKIKLCILLHAFRIRAVTIDRVMSYLNAS
chain 2: IWELKKDVYVVELDWYPDAPGEMVVLTCDTPEEDGITWTLDQSSEVLGSGKTLTIQVKEFGDAGQYTCHKGGEVLSHSLLLLHKKEDGIWSTDILKDQKEPKNKTFLRCEAKNYSGRFTCWWLTTISTDLTFSVKSSRGSSDPQGVTCGAATLSAERVRGDNKEYEYSVECQEDSACPAAEESLPIEVMVDAVHKLKYENYTSSFFIRDIIKPDPPKNLQLKPLKNSRQVEVSWEYPDTWSTPHSYFSLTFCVQVQGKSKREKKDRVFTDKTSATVICRKNASISVRAQDRYYSSSWSEWASVPCS
EC50 for stimulating IFN-γ secretion from CD14- PBMC (ELISA, 16 hours): 2.51 pM
